How the values were obtained:
Assay in all cases: fluorescence polarization
U1A E19S = U1A E19S (UniProt P09012 10-89, E19S)
U1A E19K = U1A E19K (UniProt P09012 10-89, E19K)
U1A = U1A (UniProt P09012 10-89)
dK50dM51 E19K = dK50dM51 E19K (UniProt P09012 10-89, E19K;del50-51)
U1A M51A = U1A M51A (UniProt P09012 10-89, M51A)
U1A L49A = U1A L49A (UniProt P09012 10-89, L49A)
U1A E19A = U1A E19A (UniProt P09012 10-89, E19A)
U1A L49K = U1A L49K (UniProt P09012 10-89, L49K)
U1A E19F = U1A E19F (UniProt P09012 10-89, E19F)
dK50dM51 E19S = dK50dM51 E19S (UniProt P09012 10-89, E19S;del50-51)
U1A M51K = U1A M51K (UniProt P09012 10-89, M51K)
U1A E19A:N15V = U1A E19A:N15V (UniProt P09012 10-89, N15V;E19A)
U1A L49A:E19A = U1A L49A:E19A (UniProt P09012 10-89, E19A;L49A)
U1A E19S:Y13Q = U1A E19S:Y13Q (UniProt P09012 10-89, Y13Q;E19S)
U1A M51A:E19A = U1A M51A:E19A (UniProt P09012 10-89, E19A;M51A)
U1A E19S:N15V = U1A E19S:N15V (UniProt P09012 10-89, N15V;E19S)

Binder	Kd (U1A E19S)	Kd (U1A E19K)	Kd (U1A)	Kd (dK50dM51 E19K)	Kd (U1A M51A)	Kd (U1A L49A)	Kd (U1A E19A)	Kd (U1A L49K)	Kd (U1A E19F)	Kd (dK50dM51 E19S)	Kd (U1A M51K)	Kd (U1A E19A:N15V)	Kd (U1A L49A:E19A)	Kd (U1A E19S:Y13Q)	Kd (U1A M51A:E19A)	Kd (U1A E19S:N15V)
GGCAGATCTGAGCCTGGGAGCTCTCTGCC (structured_DNA) [TAR DNA]	91.9 ± 33.4 µM	12.3 ± 2 µM	146 ± 46 µM	29.8 ± 5.8 µM	179 ± 37.5 µM	88.2 ± 22 µM	100 ± 33.4 µM	19.5 ± 2.9 µM	156 ± 80 µM	59.9 ± 14.2 µM	54.3 ± 7.9 µM	–	–	–	–	–
AGCUUAUCCAUUGCACCGGAUAAGCU (structured_RNA) [U1hpII RNA]	11.4 ± 1.6 µM	–	–	–	–	< 0.01 µM	–	–	36.1 ± 6.8 µM	–	–	48.4 ± 12.4 µM	11.7 ± 2.1 µM	63.6 ± 8.9 µM	15.8 ± 2.7 µM	15.1 ± 2 µM
